Source: the DeepSol protein solubility set

Experiment: soluble on expression in E. coli; label from the status in PepcDB or PDB records

Soluble on expression in E. coli, not soluble:
EKPAMEYHWEEVFPELDSKNPMDRREMEQRREYLREKAKEAAAYAERPSSVRLASASLGTQPQEQPKPATPFQSQLTGILPEEQIQRLSEGIDKLAEAGEQLARIGRTAAAMTESYEQMQADQEGLRLNSQSYIQQMESLSRNISGLNTIYEIQLKGISSQIDTIDRINRGLAHIRDMYDNSVIDSSSFRNENERMARQLTQLNEVYARLLQALTTNVGLPGMPGNFGASNPSSSGSSPL
MGSDKIHHHHHHMASAATEGQLADWRTRALKLEDEVKKVIVGQDAAIRLINIAIFARGHVMLEGGVGVGKTTLLQSVARGIGGAYERIEGTVDLMPNDLVYHTFLGPEGRPQIDEGPLLRAGENLSVFFFNEINRARPQVHALMLRVMAERHLHAFKREYRLPHMVVFADRNQVEKNETFEIPSAARDRFMMEIPIHVPEDKALRKSLVFDTRFQHAEQLTHTVESGLLPFNMLNDFSDVVQNHVQSSQALEDYVIDLWDATQKPQDFGITLEGIDMQRLIQAGASPRGMGMLLKAARVHAWLMEREYVYPEDIHAVFHEVIAHRLVFNSMYESRRTVLARELTAKILQTVAVPS
MYLGRHFLAMTSKALFDTKILKVNPLSIIFSPDAHIDGSLPTITDPETEAALVEAARIIRDTDETVAFPTETVYGLGGSALNDNSVLSIYRAKNRPSDNPLITHVSSIDQLNRKVFNQPHLSGTSLFDNIPSIYRPLISSLWPGPLTILLPVPSSEHSALSKLTTADQPTFAVRIPANPVARALIALSDTPIAAPSANASTRPSPTLASHVYHDLKDKIPIILDGGACKVGVESTVVDGLCNPPTLLRPGGFTYEEIVKLGGEAWSLCKVENKKTVEKGEKVRTPGMKYRHYSPSAKVVLLVPHCEGDGILKGVDRMERLKRLIETELKANSNIKKIAILTSLKLRDSDLQSKIFNEPDFSSKTFIIERLGQSGEEIQTNLFAALRKVDENDKVDLIFVEGINEEGEGLAVMNRLRKAAANNCIQF
GPGSMLRRTLYALTRPRDSAAASRDKAHFDVCVIGGGPAGIAAALRAADYNKRVCVVEKARLGGNDLWDGALQSKTMWECSAIMAKMRGDAAMRLYGESLDRYLEIDEVKMRQSMEQVSRIREEQIQAALKASPNVELVLGRATFSSNHEIQCHSKRTKEFRSITADYFIVATGSKPRKHPYVAADGRLVMTSDHIMRAPLPKSLVIVGAGVIGCEFASIIGRLGKTKVSIIDKAPHILPREDPDIVRMIESGMDRAGIVVHHNSDLYDMQPWEETVEEAKARHPADPAPQSGVQYTVMDRTTRKLTTFQVERALISIGRVPDYSRLGIENTTLKTRGSQLHVNEFGQCVGTPHIFAVGDAATHMQLVSMGEAQAKLAVDYIYGTEPKVVPNLTETMSSVAFLTRAVASVGYNESQCREKGIAYIAARYSYEVVSRAVAAANTKGFVKIICADDPERRILGVRALGMNASTLVDIGALAIQNGQGVFDLAGRLTAYPAVSQAFQECLRSILDLSAQLHADPARGVKLTKWTPPDMSRGVAYKGKATAPGESSPRQSGWVIH
MGSDKIHHHHHHMRDMVPRLTKSYEASSQPIASIRSSVLSVVVGALEATGVSTDHLLAQHGLSRLTLDDPYNPVSLKNYVAFFEDAARMSSQPMLGIRLGNAIKAEDLGPVGVLYTMMQTLRSAIVRFSHFFPALQGSTKLGLSVRGDATWLEYQIEDQTIWPRRQDTEFTLALICALTRSRLGRGWAPEEIHFEHSAPTNGRDMAHFFGAVIRFDQPINRMLIRTEDLDLPFASANPAAIAIIEQHLNDLIGDGVVPAFEDAVLQAIMRCMKRGEVTLELVASRLGIGPRTLQRRLAATGRTFREIVQQQRHGTATVLLKDERIALGVVAGNLGYADTATMSRAFKTWTGQSPRAYSKKNRREAR
MTNSNRRKFLKATGVGLLGGLAGCTRGGDSSGGDGSDGSSDGSDGSGGSDGGTSTSGSDGELAIPLSEYEDADIDWRQFEGSSINIGAVQHPWVSAIKPAVPVFEELTGIDVVWNVLPEQQFRTKRQTDVSTGAGQFDVFYMDQVVNQFREEGWIQPLDPFFDDDSLFDEDWYEPDDLFEASRWQAHGGGYSDTWTGMPITVEVQTQFYRKDLYDKHDLEVAETLEQFRQNAQTIHENESDVVGTVGRGDKGYGMNIYILNTFLREFGTSLWTEFPTDSGLDSDGVINAAEWYVSLLQDYGPEGASTQTWSDVLSTMQEGRAGHIVSDANLFWPGLTGSDSSVADNIGIAKAPSPADGQFSPNAFNWQISTSKNAQNSEQAFLFMVWASSQPTNTWMHVEGDAAFSVRQSVWENDEFRSRVGENFAQVTLESLQEAAPDPFDRKYPQWGQRYSEELQRAIAGQKSAEEAMTKAASVAEDIYSN
MTPEIKVKSMRSVGTQVDVQCITYGLAGFDSVFKHCGVFSGEEHNVSSIWKGPVRMVERKTETESFEISQYGETVFKPSLQLLVGTSDEIAFSLLRHVFSKMDIIELRHYLQVLGFEKTFNLMYNLGEEFIEGEIPVDERILLDEIEALESFTVSNMTIEEEIEARRVERLALKFVEEMYNPDTENDEQIALLLHSEMNDENGDNDLIEEDYFNIANLEESFPGTNKKVVREAYNIAGRKVDFTREILLSNGEVENTYAVKLKPKPTWSKKVASSPSPLRLSLPKKSKKEEENHFLKKRSGRHSQLEEIQLLAIRTRQKIEADRITSSNSMAAAKYRQLIIVDRASRMKIEKSSEVKELDRKIREAHNNPWFLDLHYMSVDGAVKLVKEAIEAVKYHLKAARNLDRRITVVTGSGNNSKCGAKIKPQVLAMLQHNDYNYELVNDGCIRFKV
MVVAFLIGAGGMFAGMSLFGVNPAEVTQTISSGNASTAQGNLAKINEAYALIDSRYVEDVKDEKLVEGAIQGMLSTLKDPYSTYMDKETAKQFSESLDPELEGIGAEVNKTDGKLIIVSPIKGSPAEKIGIKPNDQILSVDGNSVKDLSREEAVLKIRGKKGTTVAIEIKRAGVADPIVFKIKREKIPIFTVFSSVKQESGKDIGYMQITSFAENTAKEFKDQLKELEKKNIKGLVIDVRGNPGGYLNSVEEILGEIMTDKKPMLQVEQRNGEKKKFSTELKERKPYPISVLIDNGSASASEILAGALKEGEGYDLIGEKTFGKGTVQQAVPFKDGSNIKLTMFKWLTPDGNWIHKKGIKPTVEVKQPDYYHATPIQIEKTLSYNANDVQVKHAQEMLKSLGYVPGREDGYFSKETESALKAFQNANKMEATGQLDKKTAEAIQTKIIEKIRSGENDLQLQSALKLMAK
MSNDQLKSKLREFFDRQPDQSEKAHQDSKIFEVLYSQFLENQHCIDWNSWKFLEEKHQVTLKDLEPFDKSRFNILNKLAVIKLNGGLGTTMGCSKAKSLVEVREGYTFMDLAVLEHQKMCEAHNVDTPLYLMNSFYTDEDTKKYLAEKGYSNVKTFVQSKCPRLDAETKLPIEDENEDWGDDAWCPPGHGNIFQSLQNSGVLDQLLADGREIIFVSNIDNTGANTDLQIVQLMLDKNVDYIMECTPKTQVDVKGGTLIDIGGRMMHLEMPQVPAENLPDFCSTKVFKIFNTNNIYVNLKAVKKLLPDIKSEIIVNKKTIRSREVLQLEFSIGGCIKNFDNALCVHVERKRFRPVKNLGDLLSLRSTLCDLDHSTFKVHHNHELGAPPVISLDPSIYNSVEVVDLKFPHPLVMDNCSEFAVVGDVTFGKNVKLSGKVTVNGKTESPGVVPDGTVLKDQEYIAE
MPVGRKEQIVDCRAVMGLGEGGGLAQRGTFAEGLRNDVVVVAMSPGRRHITKPVCEITYGIREAGIQTSVLVLDAGGGIPSDAPQGSLGSTFGLKPEEAKQVNRHKLCVIHFGNVKSHIIYKARLFLKYVDIPTIIVCQTPVDMEDFAAIGIKTKNVMPLESKTEGKIVEIITGVIRGESAPQKKIDEIIESIKKHLGLEHHHHHH
MLFDLDGTVWEGGRALPFAVDSINQVNLPLMYVTNNASRGPEVVASLLSDMGIFTQPEQVLTSAQAAIDLALKEVPVGSNVLVLGTDSFKSLAAEAGYMVVNSADMEPVAVFHGHNPATSWTELSEAALAIRCGAKYYASNLDTTLPSERGLCVGNGSMVAAVVSATGVQPVSAGKPEAAMFHVAAEKLASERPLAVGDRLNTDIAGGVAAGFDTLHLLTGVSQHWALVHAIESERPTLIAEDLRALSSDRSVLMPQLQGDFNAYLQGTEIVLNGGSTASTSTEALRSVLSVAWQSAEFGGTVKPVSEHAIRCMSEWR
MGHHHHHHSHMVLLHVKRGDESQFLLQAPGSTELEELTVQVARVYNGRLKVQRLCSEMEELAEHGIFLPPNMQGLTDDQIEELKLKDEWGEKCVPSGGAVFKKDDIGRRNGQETSGSRCLCYHGDGERCLGPASRRGDDCLPHGVATV
MVIVGGQDRSISTRQGAAMTDTPPPETDAAPEVPGAAPGKTLTPAARRALEEAAARRAAEAALSLPPEEGGRDGPEPTRFGDWEKKGVAVDFLEHHHHHH

Soluble on expression in E. coli, soluble:
MSLCELLGMSANVPTDIVFSFTGLMQRGGGTGPHRDGWGIAFYEGRGVRLFQDPLASVDSEVARLVQRFPIKSETVIGHIRQANVGKVGLSNTHPFIRELGGRYWTFAHNGQLADFQPKPGFYRPVGETDSEAAFCDLLNRVRRAFPEPVPVEVLLPVLISACDEYRKKGVFNALISDGDWLFTFCSSKLAYITRRAPFGPARLKDADLTVDFHAETTPDDVVTVIATEPLTDNENWTLQQSGEWVLWWGGEVLAKGEGGSHHHHHH
SLQLKSEKARIILSGEPTLLIDKGKIDISALKSQRLNINDLMEELRLKNYFNVEDIEYAILETSGQISLIPKTHLTNATKEDLNLKVKQENVPITIILDGKVNTDNIKYLNKDADWLMKELKKNKIDSPKDVFLALIDSKGKFYYQKYNN
MAERLLQSMSRVAGRCHPDCVKASDEQEDYHASQNAALVAVNLISSARLILKLDAEFTEYSAQFLMDNAGKEDDPGEVDQQRNQVTTENCLRYLAENVWTKKENGQGGMDQQRPVLTVKDCLELAFKKGLPRREHWAHLGCTFKAPPFACQIPRVPVKGEVVEVKTFDEAFKLLVHQPIGAKLHLFSPQIDNVGEGVYKGLTTGNETHYVGLRDVLIASVEEFEGDSVAIVKICYKKKLSFIKVSLSVRFLSVAHDGDKSKFIAPTGLLVDFCVPRLSIN
NQLSGLHSMEEQLAKKLQIKKCLVVQGDSDDTPWVREEMGRVAVEQLDMALTEKRNIVAVMGGSTMATVAEMMTTDFAKGRELLFVPGRGGIGEDLDNQANTICDKMATKTNTKHRVLYVPEQLGEEAYRSLLKEPAIQEGLRLVQSANAIILGIGDALAMAKRRHTGEDVLEKIIRRKAVGEAFGYYFDEQGEVVHKVPTFGLQFEDLAQIPHIIAVAGGTSKAKAIKSYMKSAPKNTILITDEGAAKSLLK
MSIEVRDCNGALLADGDNVSLIKDLKLKGSSTVLKRGTMIRGIRLTDSEDEIEGRTDKIKGLVLRTEFLKKAGS
MSLYIQNLELTSYRNYDHAELQFENKVNVIIGENAQGKTNLMEAIYVLSMAKSHRTSNDKELIRWDKDYAKIEGRVMKQNGAIPMQLVISKKGKKGKVNHIEQQKLSQYVGALNTIMFAPEDLNLVKGSPQVRRRFLDMEIGQVSPVYLHDLSLYQKILSQRNHFLKQLQTRKQTDRTMLDVLTDQLVEVAAKVVVKRLQFTAQLEKWAQPIHAGISRGLEELTLKYHTALDVSDPLDLSKIGDSYQEAFSKLREKEIERGVTLSGPHRDDVLFYVNGRDVQTYGSQGQQRTTALSLKLAEIDLIHEEIGEYPILLLDDVLSELDDYRQSHLLHTIQGRVQTFVTTTSVDGIDHETLRQAGMFRVQNGALVKEGGSHHHHHH
